# Measured values taken from US6358897B1, “Alkyl trypsin compositions and methods of use in contact lens cleaning and disinfecting systems” (Alcon Laboratories, Inc., priority 1996, dated 2002).
# System: azocasein
# Experiment: Stability of Et-trypsin and trypsin in a disinfecting composition (Example 2B), azocasein method
# Format: physicochemical
# Conditions: 37° C., Example 2B composition, 50 μg/ml
# Description: Azocasein Method The following solutions are used in this assay: 1) Buffer solution: 0.05 M sodium phosphate buffer containing 0.9% sodium chloride, pH 7.6. 2) Substrate solution: 2 mg/ml azocasein in the buffer solution mentioned above. The assay is initiated by mixing 1 ml of an appropriately diluted (such that the enzyme activity is in the range of standard curve) enzyme composition in phosphate buffer with 2 ml of azocasein substrate solution (2 mg/ml). After incubation at 37° C. for 20 minutes, the mixture is removed from the incubator and 1 ml of trichloroacetic acid to (14% w/v) is added to stop the enzyme reaction. The mixture is vortexed well and allowed to stand at room temperature for 20 minutes. After centrifuging at 2500 rpm (with a Beckman GS-6R Centrifuge) for 15 minutes, the supernatant is filtered with a serum sampler. 2 ml of the clear yellow filtrate is then adjusted to a neutral pH with 2 ml of 0.5 N sodium hydroxide and the absorbance of 440 nm wavelength light is measured with a spectrophotometer. The amount of azocasein hydrolyzed is calculated based on a standard curve of known concentrations of azocasein solution developed under identical conditions. An enzyme activity unit (“AZ U”) is defined as that amount of enzyme which hydrolyzes 1 μg of azocasein substrate/minute at 37° C. The following is an example of the stability of Et-trypsin or Me-trypsin in a disinfecting composition of the present invention as compared to an analogous composition containing trypsin. The enzymes were solubilized in the Example 2B composition. The compositions were stored at 37° or 50° C. for 8 days or 30 hours, respectively. At various time points, enzyme activity was assayed using the azocasein method.
substance,measurement,setting,value
ethyl trypsin [Et-Trypsin],% Activity Remaining,1 Hour,100%
same,% Activity Remaining,2 Hours,100%
same,% Activity Remaining,4 Hours,95.2%
same,% Activity Remaining,6 Hours,99.3%
same,% Activity Remaining,8 Hours,97.9%
same,% Activity Remaining,1 day,89.7%
same,% Activity Remaining,2 days,82.5%
same,% Activity Remaining,4 days,76.4%
same,% Activity Remaining,8 days,65.6%
